Tests used:
IL31RA (mouse) = IL31RA (mouse) (UniProt Q8K5B1); assay: cell-based or functional assay
TrkA (mouse) = TrkA (mouse) (UniProt Q3UFB7); assay: cell-based or functional assay
Sequence of UniProt Q3UFB7 (Q3UFB7 34-799): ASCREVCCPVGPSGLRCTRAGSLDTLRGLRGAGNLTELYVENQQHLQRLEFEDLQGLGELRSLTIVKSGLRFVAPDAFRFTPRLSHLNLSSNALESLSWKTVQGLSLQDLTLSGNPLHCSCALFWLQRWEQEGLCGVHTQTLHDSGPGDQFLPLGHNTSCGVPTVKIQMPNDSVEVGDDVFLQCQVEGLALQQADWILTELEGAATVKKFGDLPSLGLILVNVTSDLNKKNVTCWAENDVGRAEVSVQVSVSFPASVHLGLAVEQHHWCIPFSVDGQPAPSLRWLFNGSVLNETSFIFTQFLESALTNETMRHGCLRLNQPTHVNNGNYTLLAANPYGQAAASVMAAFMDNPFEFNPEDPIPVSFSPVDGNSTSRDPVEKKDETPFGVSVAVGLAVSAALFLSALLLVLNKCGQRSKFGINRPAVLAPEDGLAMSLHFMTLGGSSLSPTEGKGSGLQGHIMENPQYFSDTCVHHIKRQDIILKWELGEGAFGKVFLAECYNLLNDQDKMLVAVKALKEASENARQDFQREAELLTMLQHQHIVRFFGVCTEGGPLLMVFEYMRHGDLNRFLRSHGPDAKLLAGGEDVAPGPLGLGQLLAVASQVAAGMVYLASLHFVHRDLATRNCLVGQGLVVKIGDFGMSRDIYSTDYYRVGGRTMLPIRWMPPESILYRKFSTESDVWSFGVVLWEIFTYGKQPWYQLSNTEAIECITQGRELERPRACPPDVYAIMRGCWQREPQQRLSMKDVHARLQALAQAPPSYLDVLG

Sequence of UniProt Q8K5B1 (Q8K5B1 19-716): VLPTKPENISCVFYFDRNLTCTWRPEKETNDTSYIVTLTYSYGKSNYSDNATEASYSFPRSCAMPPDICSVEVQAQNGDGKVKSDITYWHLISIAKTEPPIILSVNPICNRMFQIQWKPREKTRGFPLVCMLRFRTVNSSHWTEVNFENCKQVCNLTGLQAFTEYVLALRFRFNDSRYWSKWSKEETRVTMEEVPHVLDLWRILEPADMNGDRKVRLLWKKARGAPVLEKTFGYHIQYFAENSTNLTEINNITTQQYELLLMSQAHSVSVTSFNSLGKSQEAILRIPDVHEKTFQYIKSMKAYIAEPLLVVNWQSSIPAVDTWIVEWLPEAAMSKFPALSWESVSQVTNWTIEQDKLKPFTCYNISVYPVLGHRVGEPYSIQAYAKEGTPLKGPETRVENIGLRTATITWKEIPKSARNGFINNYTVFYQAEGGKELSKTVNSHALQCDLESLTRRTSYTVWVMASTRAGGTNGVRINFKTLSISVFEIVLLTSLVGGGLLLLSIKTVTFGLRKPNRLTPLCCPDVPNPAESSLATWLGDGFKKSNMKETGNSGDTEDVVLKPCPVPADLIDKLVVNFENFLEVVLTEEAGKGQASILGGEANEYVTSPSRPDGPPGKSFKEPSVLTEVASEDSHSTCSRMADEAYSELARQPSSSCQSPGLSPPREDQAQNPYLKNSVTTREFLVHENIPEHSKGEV

Substance	overlap of virally infected cells with K14 positive keratinocytes, skin of wildtype mice, subcutaneous 3E+10 VG (IL31RA (mouse)) [percent]	TrkA positive DRG cells infected after retro-orbital injection of 3E+10 VG (TrkA (mouse)) [%]	infected DRG cells that are TrkA positive after retro-orbital injection of 3E+10 VG (TrkA (mouse)) [%]	overlap of virally infected (tdTomato) sensory neurons with TrkA antibody staining, trigeminal ganglia, 3 weeks after IV injection (TrkA (mouse)) [%]
IL31^K134A-SNAP::AAV2-ΔHSPG (from UniProt P03135 1-735)	100			
NGF^R121W-SNAP::AAV2-ΔHSPG (from UniProt P03135 1-735)		80	83	> 80
